Experiments:
[1] = molecular target: T1, HPV16 VLPs (human papillomavirus type 16, UniProt P03101 1-505); assay: ELISA, VLPs coated
T1 construct: Specificity control; also called human papillomavirus VLPs
T1 sequence: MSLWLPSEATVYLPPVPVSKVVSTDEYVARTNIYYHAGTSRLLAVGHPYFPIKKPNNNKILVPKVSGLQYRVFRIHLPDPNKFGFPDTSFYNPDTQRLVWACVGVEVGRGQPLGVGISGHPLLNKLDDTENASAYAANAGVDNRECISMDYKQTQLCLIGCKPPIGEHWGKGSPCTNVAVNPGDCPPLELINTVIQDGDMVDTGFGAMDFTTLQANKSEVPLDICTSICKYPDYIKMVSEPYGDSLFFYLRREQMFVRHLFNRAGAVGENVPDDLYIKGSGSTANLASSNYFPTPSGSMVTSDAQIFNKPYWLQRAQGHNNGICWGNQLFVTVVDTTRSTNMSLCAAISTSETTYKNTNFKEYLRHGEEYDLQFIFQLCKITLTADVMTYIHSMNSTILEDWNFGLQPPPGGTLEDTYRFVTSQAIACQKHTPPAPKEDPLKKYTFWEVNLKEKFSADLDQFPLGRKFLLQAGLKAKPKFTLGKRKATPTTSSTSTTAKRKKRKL

[2] = molecular target: T1, HPV16 VLPs; assay: ELISA, intact VLPs coated, hybridoma supernatant

B1: MAb #61 (antibody, V domains shown)
VH: QVQLQQSGAELARPGASVKMSCKASGYTFTSYTMHWVKQRPGQGLEWIGYINPSSGYTNYNQKFKDKATLTADKSSSTAYMQLSSLTSEDSAVYYCARPDGYYAWFAYWGQGTLVTVSA
VL: DIQMTQSSSSFSVSLGDRVTITCKASEDIYNRLAWYQQKPGNAPRLLISGATSLETGVPSRFSGSGSGKDYTLSITSLQTEDVATYYCQQYWSTPTFGGGTKLEIK
notes: Murine hybridoma antibody, supernatant; also called antibody 61
binding result [1]: no binding | ELISA absorbance (405 nm) [2]: 0.061

B2: MAb #19B (antibody, V domains shown)
VH: QVQLQQSGAELARPGASVKMSCKASGYTFTSYTMYWVKQRPGQGLEWIGYVNPSSGYTNYNQKFKDKATLTADKSSSTAYMQLSSLTSEDSAVYYCARHGNYRYDGYYGMDCWGQGTSVTVSS
VL: DIQMTQSSSSFSVSLGDRVTITCKASEDIYNRLAWYQQKPGNAPRLLISGATSLETGVPSRFSGSGSGKDYTLSITSLQTEDVATYYCQQYWSTPYTFGGGTKLEIK
notes: Murine hybridoma antibody, supernatant; also called antibody 19
binding result [1]: no binding | ELISA absorbance (405 nm) [2]: 0.015

From patent US20230049732A1 (UNIVERSITY OF LOUISVILLE RESEARCH FOUNDATION, published 2023)
